# From the domain aggregation screens of Martell et al. (2025)
# Test: soluble fraction after stress (log2 fold change); higher = more stays soluble; pooled small domains, quantitative proteomics
# Conditions: stress: pH 4
# In short: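 Pooled custom libraries of small protein domains were subjected to pH 4 and measured by high-throughput quantitative proteomics. The log2 fold change in soluble amount per domain is reported, higher values meaning more remained soluble. This is used as a measure of aggregation propensity.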
row,Sequence,soluble fraction (log2)
1,HMAALTADEAKQIALKHAGVAESDVQRLKVEQDRDDGRLLYEVEWDVGRTEYSYEIDANTGDILNYEKDV,-0.361
2,HMIEQEQAFLEQVLKKYSQEELVLTVGSRTLVKYSAGQLERLLEHYPHVRLASSPVNGEAGFLLSRG,-0.784
3,HMPKHDWDAFAGAIARRVHDHGMPVSQGELVRDMMDWFAGRKDFPPPDERTVRRKVSAIWRELNG,-0.292
4,HMNRNEFMERLEYLLSDIPQEEKADAIAYYRDYLEEAGDDAGKAIQDFGSPERIAAMIRSELAG,-0.841
5,HMLPNIKSEMEILGDNAKARLEAAELWSKKYLSNEAYDTMSKLATTADGVKAIEEIMNITKS,-0.274
6,HMDLMQRVIIVRPVMQGDYLTRAHLGLQTLSRNGGGGFTDIDDLVGRRAKKSLRAGLVVHNRHL,0.124
7,HMQNMVYVATKDIPAGGVIDQDSVSKTAISTSIDTSLYITDDDLGKIAVVNISQGQSVFSNMVGT,-0.585
8,HMEFDIDAAIHAALEPQAVMRAWFGHEGREYPEDFGVVFFRGWESFTHQEKVEAVRDAKKVLDRAVR,-1.17
9,HMQSNIHELQKKLNEALQALSEDHRAVVTMFDIQGMPHAEISKILGVSEGTVRSRLYYAHQQLQGHL,-0.663
10,HMTINPFSTLAVRELEILHYLLNGHRTKEIATNLGLKMNTVSTIKSNIFEKVKADSFTHLLQLAHVHQIS,-0.0952
11,HMDGLTEQQADDILAFISIKGTNAEVLAALENYAGRNETFDTGLSELKVVASNLAAFGMPEENFVVDL,0.0229
12,HMHAGQIISQKIKESGISISHVAKHLKVQRATLYNLFEREVWPAHRLRTIEALLHIDLSDLYP,-1.52
13,HMLAFDKDDSGAVAEIILVLGRYWMDFSHKKYPAAEGVALRHKGLSHIFTVLRPYLSTPASELIGERLRR,0.22
14,HMSADDSDDRKGIDAWLTQLLANGSVKATEVYSAADAAGYSKDQAKRAKRRLAIEAVREAMDGPWFWRLD,-0.742
15,HMGNRWENLISNKMIDDVDEELLRKYIAQAHDAGRIAISYTDRKTVLNQLELTDGDRLLNAGKVLFSD,-0.657
16,HMAMNLQETVLMQLRDLILRGTFEPGQRLSEQPLAERLKASRTPVRSALVTLEQEGLIEASETGKYLVRQ,-0.845

row,Sequence,soluble fraction (log2)
1,HMKQQFTREQIIELMYKAYKKHKKKLNRVEIKKEKALPSYVTIGRYLNETSIKKIWEIVLSEKE,-0.388
2,HMAISEAERARLQTKIKERNKMARWINTNLNPTSKIRNINPAETVRKLMTQDDADSLERSLDAFMEA,0.0822
3,HMNSFKIYPNPSSREVVRFNQAQDVKVYDTLGKLILSAKNTSAIDTKSFNTGIYFIKTANGLTKKLIV,-0.0877
4,HMATTAGIEKYLGSGLIKGIGPIYAKKIVRKFKEDTIRIIDEEPDRLLEVEGIGQKRLEIIKQAWQQQKE,-0.826
5,HMSEPTLESLRAEGAHHYDPARFHYLEVLARRMPGQHAAVQQVLASRLREAVAAYAGRRSLI,-0.252
6,HMEGTAAAVALKGLMEQSGVDLREVMAAVESRGYYPKGTPFENYDPAFVSGVLVGAWDQVYKMILDQRPIP,-1.1
7,HMTVNLPPKQKAAILLMSLPPEVSAQLFKELGPDEVHAITLEISKLPPISPDVRAQVIDEFLHSS,-0.226
8,HMDGRSLSHATLEEIRIRAVQRVEAGESPEVVVKALGFSRPRIYEWLALYREGGLEALRAKPV,-0.53
9,HMKKYDIKEAQEIAEINRIPGLVTTSHGRRVYFDPKIMQYVSEEQIVKKYGQKTVKMLDQWYVSNILNK,0.419
10,HMTRIHEEVVNQVHDLVKEGRFKAGDQLPSERELAEIFKVSRTSVREALRALETQGLIISRTGMGNFIAD,-0.472
11,HMELGRQDSAQLGRWAAGILAKNGKKITGRTMEFFLSRTGDDMENISSELEKLISYTLGREVITEEDIEAV,-0.757
12,HMVRSKLEIVPVPEDAVVKIAGLKRLTYQAYQNEDVPYMVYKNGYEAQSGTVFMDTDKTLTVTLEESP,0.151
13,HMDPTIRRGELIDAASRLFLSKGYAATSVRDILDEVGNRTASPSVFYYYFKSKEEIYQAVLRRHSE,-0.485
14,HMSEYLDIHMAMEKLNRKEQLFVHLRFYEGLTQSEIAQRLFTSQVQISRLEKSVLEKMRQILSK,-0.91
15,HMNRIGERIKRKRELRNLNLGELAEKVGISASALSQIEKSKSFPSVITLKSIAEQLRTTVGELIGEN,0.328
